{"source": "patent US6284456", "system": "HIV-1 Tat Tat-1 delta1-47 (Human immunodeficiency virus 1 (HXB2))", "assay": "EMSA", "conditions": "truncated Tat-1 (construct assumed delta1-47)", "data": [{"substance": "HIV-2 TAR-2 RNA wt (+1 to +123)", "values": [{"measurement": "binding signal (fold higher affinity than for TAR-1)", "result": 4}]}]}
